# Residue numbers refer to the chain shown, from its start.
# T1: human GIP receptor (human) (UniProt P48546)
# T1 sequence (looked up): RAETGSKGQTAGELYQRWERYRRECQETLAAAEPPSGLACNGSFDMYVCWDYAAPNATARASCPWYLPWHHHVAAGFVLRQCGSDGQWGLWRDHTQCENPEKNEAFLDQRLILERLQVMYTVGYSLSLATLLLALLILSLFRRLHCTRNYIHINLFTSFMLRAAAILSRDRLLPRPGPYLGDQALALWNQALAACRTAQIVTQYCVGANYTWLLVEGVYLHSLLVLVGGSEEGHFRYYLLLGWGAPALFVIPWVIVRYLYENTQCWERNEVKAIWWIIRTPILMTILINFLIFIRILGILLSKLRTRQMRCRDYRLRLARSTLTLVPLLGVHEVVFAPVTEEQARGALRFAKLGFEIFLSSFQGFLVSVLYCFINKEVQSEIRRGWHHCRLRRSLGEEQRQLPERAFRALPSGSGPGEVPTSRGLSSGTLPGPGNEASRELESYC
# B1: Example 1179 (peptide)
# chain: YXQGTXTSDXXIXLDXKAQXEFIEXLIEGGPSSGEPPPSGSE
# modifications: non-natural residues, C-terminal amide, acylated Lys with fatty diacid; synthetic construct; SITE 2: note = 2-Aminoisobutyric Acid; SITE 6: note = alpha-methyl-2-fluoro-L-phenylalanine; SITE 10: note = 3-(4-Pyridyl)-L-alanine; SITE 11: note = alpha-methyl-L-serine; SITE 13: note = alpha-methyl-leucine; SITE 16: note = L-ornithine; SITE 17: note = Lysine is chemically mo
# B2: Example 1180 (peptide)
# chain: YXQGTXTSDXXIXLDXKAQXEFIEXLIEGGPSSGAPPPSGGGE
# modifications: Non-natural residues; K acylated AEEA-(γGlu)2-C18 diacid; C-terminal amide; synthetic construct; SITE 2: note = 2-Aminoisobutyric Acid; SITE 6: note = alpha-methyl-2-fluoro-L-phenylalanine; SITE 10: note = 3-(4-Pyridyl)-L-alanine; SITE 11: note = alpha-methyl-L-serine; SITE 13: note = alpha-methyl-leucine; SITE 16: note = L-ornithine; SITE 17: note = Lysine is chemically mo
# B3: Example 1181 (peptide)
# chain: B2 chain with A35E
# modifications: non-natural residues, AEEA-(γGlu)2-C18 diacid acyl on K, C-terminal amide; synthetic construct; SITE 2: note = 2-Aminoisobutyric Acid; SITE 6: note = alpha-methyl-2-fluoro-L-phenylalanine; SITE 10: note = 3-(4-Pyridyl)-L-alanine; SITE 11: note = alpha-methyl-L-serine; SITE 13: note = alpha-methyl-leucine; SITE 16: note = L-ornithine; SITE 17: note = Lysine is chemically mo
# B4: Example 1182 (peptide)
# chain: YXQGTFTSDXXQXLDXKAQXQFIEXLIAXGPSSGEPPPSGGGE
# modifications: non-natural residues; lysine acylated with C18 diacid; C-terminal amide; synthetic construct; SITE 2: note = 2-Aminoisobutyric Acid; SITE 10: note = 3-(4-Pyridyl)-L-alanine; SITE 11: note = alpha-methyl-L-serine; SITE 13: note = alpha-methyl-leucine; SITE 16: note = L-ornithine; SITE 17: note = Lysine is chemically modified through conjugation of the epsilon-amino group
# B5: Example 1183 (peptide)
# chain: B4 chain with E24Q, A28E
# modifications: non-natural residues; lipidated Lys; C-terminal amide; synthetic construct; SITE 2: note = 2-Aminoisobutyric Acid; SITE 10: note = 3-(4-Pyridyl)-L-alanine; SITE 11: note = alpha-methyl-L-serine; SITE 13: note = alpha-methyl-leucine; SITE 16: note = L-ornithine; SITE 17: note = Lysine is chemically modified through conjugation of the epsilon-amino group
# B6: Example 1184 (peptide)
# chain: B4 chain with A28E
# modifications: non-natural residues; Lys acylated with γGlu-C18 diacid; C-terminal amide; synthetic construct; SITE 2: note = 2-Aminoisobutyric Acid; SITE 10: note = 3-(4-Pyridyl)-L-alanine; SITE 11: note = alpha-methyl-L-serine; SITE 13: note = alpha-methyl-leucine; SITE 16: note = L-ornithine; SITE 17: note = Lysine is chemically modified through conjugation of the epsilon-amino group
# B7: Example 1185 (peptide)
# chain: B4 chain with E35A
# modifications: not fully specified; non-natural residues; Lys acylated with γGlu-C18 diacid; C-terminal amide; synthetic construct; SITE 2: note = 2-Aminoisobutyric Acid; SITE 10: note = 3-(4-Pyridyl)-L-alanine; SITE 11: note = alpha-methyl-L-serine; SITE 13: note = alpha-methyl-leucine; SITE 16: note = L-ornithine; SITE 17: note = Lysine is chemically modified through conjugation of the epsilon-amino group
# B8: Example 1186 (peptide)
# chain: B4 chain with E24Q, A28E, E35A
# modifications: not fully specified; Aib, 4Pal, Me4Pal, alpha-methyl residues, Orn, lipidated Lys, amide; synthetic construct; SITE 2: note = 2-Aminoisobutyric Acid; SITE 10: note = 3-(4-Pyridyl)-L-alanine; SITE 11: note = alpha-methyl-L-serine; SITE 13: note = alpha-methyl-leucine; SITE 16: note = L-ornithine; SITE 17: note = Lysine is chemically modified through conjugation of the epsilon-amino group
# B9: Example 1187 (peptide)
# chain: B4 chain with A28E, E35A
# modifications: not fully specified; acylated lysine γGlu-C18 diacid; non-natural residues; C-terminal amide; synthetic construct; SITE 2: note = 2-Aminoisobutyric Acid; SITE 10: note = 3-(4-Pyridyl)-L-alanine; SITE 11: note = alpha-methyl-L-serine; SITE 13: note = alpha-methyl-leucine; SITE 16: note = L-ornithine; SITE 17: note = Lysine is chemically modified through conjugation of the epsilon-amino group
# B10: Example 1188 (peptide)
# chain: B4 chain with E24Q, A28E, X29G
# modifications: not fully specified; non-natural residues, lipidated Lys, C-terminal amide; synthetic construct; SITE 2: note = 2-Aminoisobutyric Acid; SITE 10: note = 3-(4-Pyridyl)-L-alanine; SITE 11: note = alpha-methyl-L-serine; SITE 13: note = alpha-methyl-leucine; SITE 16: note = L-ornithine; SITE 17: note = Lysine is chemically modified through conjugation of the epsilon-amino group
# B11: Example 1189 (peptide)
# chain: YXQGTXTSDXXIXLDXKAQXEFIEXLIEGGPPSXXPPPXGS
# modifications: non-natural residues, C-terminal amide, acylated Lys with fatty diacid; synthetic construct; SITE 2: note = 2-Aminoisobutyric Acid; SITE 6: note = alpha-methyl-2-fluoro-L-phenylalanine; SITE 10: note = 3-(4-Pyridyl)-L-alanine; SITE 11: note = alpha-methyl-L-serine; SITE 13: note = alpha-methyl-leucine; SITE 16: note = L-ornithine; SITE 17: note = Lysine is chemically mo
# B12: Example 1190 (peptide)
# chain: B11 chain with X35E, X39E, S41E
# modifications: non-natural residues, acylated Lys, C-terminal amide; synthetic construct; SITE 2: note = 2-Aminoisobutyric Acid; SITE 6: note = alpha-methyl-2-fluoro-L-phenylalanine; SITE 10: note = 3-(4-Pyridyl)-L-alanine; SITE 11: note = alpha-methyl-L-serine; SITE 13: note = alpha-methyl-leucine; SITE 16: note = L-ornithine; SITE 17: note = Lysine is chemically mo
# B13: Example 1191 (peptide)
# chain: B11 chain with X34G, X35E, X39E, S41E
# modifications: non-natural residues; lipidated Lys AEEA-γGlu-C18 diacid; C-term amide; synthetic construct; SITE 2: note = 2-Aminoisobutyric Acid; SITE 6: note = alpha-methyl-2-fluoro-L-phenylalanine; SITE 10: note = 3-(4-Pyridyl)-L-alanine; SITE 11: note = alpha-methyl-L-serine; SITE 13: note = alpha-methyl-leucine; SITE 16: note = L-ornithine; SITE 17: note = Lysine is chemically mo
# B14: Example 1192 (peptide)
# chain: B11 chain with P32S, X35A, X39E, S41E
# modifications: non-natural residues; AEEA-γGlu-C18 diacid on Lys; C-terminal amide; synthetic construct; SITE 2: note = 2-Aminoisobutyric Acid; SITE 6: note = alpha-methyl-2-fluoro-L-phenylalanine; SITE 10: note = 3-(4-Pyridyl)-L-alanine; SITE 11: note = alpha-methyl-L-serine; SITE 13: note = alpha-methyl-leucine; SITE 16: note = L-ornithine; SITE 17: note = Lysine is chemically mo
# Molecular target: hGLP-1R (Homo sapiens, UniProt P43220)
# Sequence (P43220 24-463): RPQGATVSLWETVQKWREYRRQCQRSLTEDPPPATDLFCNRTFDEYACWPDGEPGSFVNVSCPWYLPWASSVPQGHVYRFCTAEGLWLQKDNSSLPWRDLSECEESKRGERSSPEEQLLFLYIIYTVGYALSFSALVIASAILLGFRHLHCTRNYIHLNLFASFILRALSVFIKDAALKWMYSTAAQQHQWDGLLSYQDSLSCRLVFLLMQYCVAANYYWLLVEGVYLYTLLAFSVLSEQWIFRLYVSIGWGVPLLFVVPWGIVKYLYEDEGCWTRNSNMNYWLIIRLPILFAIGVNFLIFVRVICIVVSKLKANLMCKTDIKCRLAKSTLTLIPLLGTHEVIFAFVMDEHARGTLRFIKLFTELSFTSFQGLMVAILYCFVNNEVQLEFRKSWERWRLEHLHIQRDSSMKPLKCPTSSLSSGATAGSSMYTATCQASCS
# Assay: cell-based or functional assay
Binder,Relative cAMP EC50 [nM],cAMP Rel EC50 (in the presence of 1% HSA) [nM]
B1,0.652,37.9
B2,0.445,35.6
B3,0.664,48.2
B4,0.797,80.4
B5,0.769,53.6
B6,1.18,179
B7,0.762,66.1
B8,0.594,52.1
B9,1.06,154
B10,1.01,77.1
B11,0.292,45.4
B12,0.765,77.4
B13,0.945,82.3
B14,0.499,59.5

# Molecular target: T1, human GIP receptor (human)
# Assay: cell-based or functional assay
Binder,Relative cAMP EC50 [nM],cAMP Rel EC50 (in the presence of 1% HSA) [nM]
B1,0.0102,0.58
B2,0.00602,0.341
B3,0.0115,0.666
B4,0.0316,2.73
B5,0.0484,3.16
B6,0.071,8.39
B7,0.0266,2.31
B8,0.0404,3.17
B9,0.0648,7.11
B10,0.0914,7.02
B11,0.00597,0.584
B12,0.0109,0.954
B13,0.00992,0.931
B14,0.00924,1.06

# Molecular target: human glucagon receptor (human) (UniProt P47871)
# Sequence (P47871 26-477): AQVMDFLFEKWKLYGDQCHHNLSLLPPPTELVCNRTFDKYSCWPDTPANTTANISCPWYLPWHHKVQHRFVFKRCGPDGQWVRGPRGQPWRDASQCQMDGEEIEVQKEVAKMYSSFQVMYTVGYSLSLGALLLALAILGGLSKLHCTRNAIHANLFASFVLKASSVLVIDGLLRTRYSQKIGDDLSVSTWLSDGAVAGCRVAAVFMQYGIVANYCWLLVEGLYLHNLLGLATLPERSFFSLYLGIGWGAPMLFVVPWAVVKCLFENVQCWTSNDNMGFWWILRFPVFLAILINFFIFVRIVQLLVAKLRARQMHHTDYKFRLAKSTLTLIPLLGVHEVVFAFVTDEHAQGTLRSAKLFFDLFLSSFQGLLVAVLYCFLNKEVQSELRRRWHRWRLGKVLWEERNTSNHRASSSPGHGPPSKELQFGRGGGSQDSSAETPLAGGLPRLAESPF
# Assay: cell-based or functional assay
Binder,Relative cAMP EC50 [nM],cAMP Rel EC50 (in the presence of 1% HSA) [nM]
B1,2.87,197
B2,3.16,205
B3,3.34,203
B4,1.24,172
B5,1.38,127
B6,1.5,295
B7,1.64,206
B8,1.46,164
B9,1.81,370
B10,1.16,130
B11,1.59,248
B12,1.68,192
B13,3.06,243
B14,1.54,218
